Reference: patent US20050058747

Columns and labels:
[1] = target: Soybean agglutinin (SBA) (UniProt P05046)
[2] = tested on: Soybean glycinin
[3] = target: T1, soybean Bowman-Birk inhibitor (UniProt P01055)
T1 sequence: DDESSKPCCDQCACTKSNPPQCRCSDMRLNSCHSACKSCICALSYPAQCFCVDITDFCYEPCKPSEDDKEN

[4] = tested on: Soybean beta-conglycinin
[5] = target: T2, soybean Kunitz trypsin inhibitor (UniProt P01070)
T2 sequence: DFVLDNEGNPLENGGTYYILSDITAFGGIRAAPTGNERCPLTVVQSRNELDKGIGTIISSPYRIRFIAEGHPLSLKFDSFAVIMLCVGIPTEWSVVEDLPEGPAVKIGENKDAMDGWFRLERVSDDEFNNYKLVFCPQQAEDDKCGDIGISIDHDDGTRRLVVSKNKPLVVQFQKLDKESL

Chain of Soybean agglutinin (SBA) (P05046 33-285): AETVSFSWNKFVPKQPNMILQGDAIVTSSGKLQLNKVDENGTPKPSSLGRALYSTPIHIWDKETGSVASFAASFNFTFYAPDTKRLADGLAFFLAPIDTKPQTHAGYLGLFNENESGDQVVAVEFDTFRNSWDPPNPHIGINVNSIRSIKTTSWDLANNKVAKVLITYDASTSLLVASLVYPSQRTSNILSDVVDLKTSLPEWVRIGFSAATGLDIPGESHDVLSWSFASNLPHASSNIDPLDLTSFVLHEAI

Question: With “protease from Nocardiopsis sp. NRRL 18262” as the substance, how does the Percentage degradation of isolated soy proteins [1] read?
Answer: 100%

Question: What about the Percentage degradation of isolated soy proteins [2] of the same substance?
Answer: 98%

Question: And the Percentage degradation of isolated soy proteins [3]?
Answer: 35%

Question: And the Percentage degradation of isolated soy proteins [4]?
Answer: 95%

Question: What about the Percentage degradation of isolated soy proteins [5] of the same substance?
Answer: 94%
